Consider one substance from paper PMC5477170, “Biochemical characterization of an enantioselective esterase from Brevundimonas sp. LY-2” (Microbial Cell Factories, 2017).

In data set [1] the test system is CCOC(=O)C(C)OC(=O)c1cc(Oc2ccc(C(F)(F)F)cc2Cl)ccc1[N+](=O)[O-]. As to the kind of experiment: purified protein. The following applies: 50 mM sodium phosphate, pH 7.0, 40 °C.
For data set [2], the system named is T1, CCCC(=O)Oc1ccc([N+](=O)[O-])cc1.
T1 construct: signal peptide (residues 1-28) removed; C-terminal His-tag, pET-29a(+); E. coli BL21(DE3); full ORF 306 aa; predicted 29,451 Da, SDS-PAGE ~30 kDa; gel filtration 62 kDa, dimer; N-terminus from primer (M)ATAEP
The data set is described as follows: p-nitrophenyl ester hydrolysis, Lineweaver-Burk. It counts as biochemical, Brevundimonas sp. LY-2. The following applies: pH and temperature not stated for this assay. From the text: (§1) p-nitrophenyl ester hydrolysis, Lineweaver-Burk on LacH

Data set [3] concerns T2, CCCCCC(=O)Oc1ccc([N+](=O)[O-])cc1.
T2 construct: signal peptide (residues 1-28) removed; C-terminal His-tag, pET-29a(+); E. coli BL21(DE3); full ORF 306 aa; predicted 29,451 Da, SDS-PAGE ~30 kDa; gel filtration 62 kDa, dimer; N-terminus from primer (M)ATAEP
The data set is described as follows: p-nitrophenyl ester hydrolysis, Lineweaver-Burk. It counts as biochemical, Brevundimonas sp. LY-2. The note with it: pH and temperature not stated for this assay.
Description: as §1

Data set [4] concerns T3, CCCCCCCC(=O)Oc1ccc([N+](=O)[O-])cc1.
T3 construct: signal peptide (residues 1-28) removed; C-terminal His-tag, pET-29a(+); E. coli BL21(DE3); full ORF 306 aa; predicted 29,451 Da, SDS-PAGE ~30 kDa; gel filtration 62 kDa, dimer; N-terminus from primer (M)ATAEP
As to the kind of experiment: p-nitrophenyl ester hydrolysis, Lineweaver-Burk. It counts as biochemical, Brevundimonas sp. LY-2. The following applies: pH and temperature not stated for this assay.
Description: as §1

Data set [5] deals with T4, CC(=O)Oc1ccc([N+](=O)[O-])cc1.
T4 construct: signal peptide (residues 1-28) removed; C-terminal His-tag, pET-29a(+); E. coli BL21(DE3); full ORF 306 aa; predicted 29,451 Da, SDS-PAGE ~30 kDa; gel filtration 62 kDa, dimer; N-terminus from primer (M)ATAEP
The data set is described as follows: p-nitrophenyl ester hydrolysis, Lineweaver-Burk. It counts as biochemical, Brevundimonas sp. LY-2. The note with it: pH and temperature not stated for this assay.
Description: as §1

Turning to LacH (Brevundimonas sp. LY-2), the Km in data set [1] was determined as 0.067 ± 0.002 mM; in data set [2], 0.185 ± 0.009 mM; in data set [3] it was 0.208 ± 0.012 mM; in data set [4] it was 0.335 ± 0.016 mM; in data set [5] it was 0.147 ± 0.008 mM. Also, the kcat came out at 0.87 ± 0.09 s⁻¹ in data set [1]; 7.48 ± 0.45 s⁻¹ in data set [2]; 3.47 ± 0.13 s⁻¹ in data set [3]; 0.767 ± 0.06 s⁻¹ in data set [4]; 8.39 ± 0.28 s⁻¹ in data set [5]. Moreover, the kcat/Km in data set [1] was 12900 M⁻¹ s⁻¹; in data set [2], 40400 M⁻¹ s⁻¹; in data set [3], 16700 M⁻¹ s⁻¹; in data set [4] it was 2290 M⁻¹ s⁻¹; in data set [5] it was 50100 M⁻¹ s⁻¹.
